Assay: Activity with ONPG, release of o-nitrophenol (ONP) at 405 nm
Type: biochemical
Details: enzyme 110 μg/ml, ONPG 5 mg/ml
Method: The activity of HIGAL and MTGAL with ONPG was tested by mixing 200 microliters (normally 5.5 mg/ml) ONPG in 50 mM sodium acetate, 1 mM CaCl2, 0.01% Triton X-100, pH 6.5 with 25 microliters galactanase (normally 1 mg/ml) in the well of a microtiter plate. Release of o-nitrophenol (ONP) was measured at room temperature at 405 nm every 10 seconds normally for 30 min on a SpectraMaxPlus (Molecular Devices). Effects on the observed release of ONP was studied with varied enzyme concentration, ONPG concentration and with addition of galactose (Gal), beta-1,4-galactobiose (Gal2) (Megazyme), beta-1,4-galactotriose (Gal3), beta-1,4-galactotetraose (Gal4), glucose (Glu), arabinose (Ara), galacturonic acid (GalA), maltose (Mal) or maltotriose (Mal3).
In Tables 8-11 below, incubation times required to increase the observed absorbance at 405 nm by given amounts are listed. Cells marked ‘n.r.’ indicate that the increase in absorbance was not reached in the experiment. In general, the initial increase in absorbance at 405 nm was very slow, but after a lag phase the rate of ONP release often increased drastically—often approximately exponentially. The most likely explanation for the observed kinetics is that ONPG reacts with the enzyme to give an enzyme-galactosyl intermediate which hydrolyses very slowly. Instead, the Gal of the intermediate is released by transglycosylation, initially with ONPG or added sugar as acceptor. In cases where the rate of ONP release increases, these transglycosylation products are even better acceptors than the initial ones. […] More likely, Gal inhibits the subsequent transglycosylation, which requires binding of ONPG to the +1 and +2 subsites, e.g., by binding to the +2 subsite. With 50 mg/ml Gal added (results not shown) release of ONP was even slower with only insignificant increase of absorbance at 405 nm in 30 min.

[1] = Table 11, no sugar, first experiment
[2] = Table 11, no sugar, second experiment
[3] = Table 11, no sugar, third experiment

B1: HIGAL: GH Family 53 galactanase from Humicola insolens, SEQ ID NO: 2 (wild type parent) (protein, listed as Humicola insolens)
chain: ALQYKGVDWSSVMVEERAGVRYKNVNGQEKPLEYILAENGVNMVRQRVWVNPWDGNYNLDYNIQLARRAKAAGLGLYINFHYSDTWADPAHQTTPAGWPSDINNLAWKLYNYTLDSMNRFADAGIQVDIVSIGNEITQGLLWPLGKTNNWYNIARLLHSAAWGVKDSRLNPKPKIMVHLDNGWNWDTQNWWYTNVLSQGPFEMSDFDMMGVSFYPFYSASATLDSLRRSLNNMVSRWGKEVAVVETNWPTSCPYPRYQFPADVRNVPFSAAGQTQYIQSVANVVSSVSKGVGLFYWEPAWIHNANLGSSCADNTMFTPSGQALSSLSVFHRI
modifications: mat_peptide (1)..()
- Initial rate (mOD/min) (Table 10, Gal3 0.5 mg/ml): 200 mOD/min
- Time (min) to increase A405 by: 0.025 (Table 10, Gal3 0.5 mg/ml): 0.0 min
- Time (min) to increase A405 by: 0.05 (Table 10, Gal3 0.5 mg/ml): 0.2 min
- Time (min) to increase A405 by: 0.1 (Table 10, Gal3 0.5 mg/ml): 0.3 min
- Time (min) to increase A405 by: 0.2 (Table 10, Gal3 0.5 mg/ml): 0.5 min
- Time (min) to increase A405 by: 0.4 (Table 10, Gal3 0.5 mg/ml): 0.8 min
- Time (min) to increase A405 by: 0.8 (Table 10, Gal3 0.5 mg/ml): 1.5 min
- Time (min) to increase A405 by: 1.6 (Table 10, Gal3 0.5 mg/ml): 2.5 min
- Time (min) to increase A405 by: 3.2 (Table 10, Gal3 0.5 mg/ml): 3.8 min
- Initial rate (mOD/min) (Table 10, Gal4 0.05 mg/ml): 80 mOD/min
- Time (min) to increase A405 by: 0.025 (Table 10, Gal4 0.05 mg/ml): 0.2 min
- Time (min) to increase A405 by: 0.05 (Table 10, Gal4 0.05 mg/ml): 0.5 min
- Time (min) to increase A405 by: 0.1 (Table 10, Gal4 0.05 mg/ml): 0.8 min
- Time (min) to increase A405 by: 0.2 (Table 10, Gal4 0.05 mg/ml): 1.5 min
- Time (min) to increase A405 by: 0.4 (Table 10, Gal4 0.05 mg/ml): 2.5 min
- Time (min) to increase A405 by: 0.8 (Table 10, Gal4 0.05 mg/ml): 3.7 min
- Time (min) to increase A405 by: 1.6 (Table 10, Gal4 0.05 mg/ml): 5.2 min
- Time (min) to increase A405 by: 3.2 (Table 10, Gal4 0.05 mg/ml): 7.5 min
- Initial rate (mOD/min) (Table 10, Gal4 0.5 mg/ml): 700 mOD/min
- Time (min) to increase A405 by: 0.025 (Table 10, Gal4 0.5 mg/ml): 0.0 min
- Time (min) to increase A405 by: 0.05 (Table 10, Gal4 0.5 mg/ml): 0.0 min
- Time (min) to increase A405 by: 0.1 (Table 10, Gal4 0.5 mg/ml): 0.0 min
- Time (min) to increase A405 by: 0.2 (Table 10, Gal4 0.5 mg/ml): 0.2 min
- Time (min) to increase A405 by: 0.4 (Table 10, Gal4 0.5 mg/ml): 0.5 min
- Time (min) to increase A405 by: 0.8 (Table 10, Gal4 0.5 mg/ml): 1.0 min
- Time (min) to increase A405 by: 1.6 (Table 10, Gal4 0.5 mg/ml): 2.2 min
- Time (min) to increase A405 by: 3.2 (Table 10, Gal4 0.5 mg/ml): 5.3 min
- Initial rate (mOD/min) (Table 10, no sugar): 0.9 mOD/min
- Time (min) to increase A405 by: 0.025 (Table 10, no sugar): 10.0 min
- Time (min) to increase A405 by: 0.05 (Table 10, no sugar): 11.3 min
- Time (min) to increase A405 by: 0.1 (Table 10, no sugar): 12.8 min
- Time (min) to increase A405 by: 0.2 (Table 10, no sugar): 14.2 min
- Time (min) to increase A405 by: 0.4 (Table 10, no sugar): 15.7 min
- Time (min) to increase A405 by: 0.8 (Table 10, no sugar): 17.0 min
- Time (min) to increase A405 by: 1.6 (Table 10, no sugar): 18.5 min
- Time (min) to increase A405 by: 3.2 (Table 10, no sugar): 20.0 min
- Time (min) to increase A405 by: 0.025 (Table 11, Ara 5 mg/ml): 26.5 min
- Time (min) to increase A405 by: 0.05 (Table 11, Ara 5 mg/ml): n.r.
- Time (min) to increase A405 by: 0.1 (Table 11, Ara 5 mg/ml): n.r.
- Time (min) to increase A405 by: 0.2 (Table 11, Ara 5 mg/ml): n.r.
- Time (min) to increase A405 by: 0.4 (Table 11, Ara 5 mg/ml): n.r.
- Time (min) to increase A405 by: 0.8 (Table 11, Ara 5 mg/ml): n.r.
- Time (min) to increase A405 by: 1.6 (Table 11, Ara 5 mg/ml): n.r.
- Time (min) to increase A405 by: 3.2 (Table 11, Ara 5 mg/ml): n.r.
- Time (min) to increase A405 by: 0.025 (Table 11, GalA 5 mg/ml): 9.5 min
- Time (min) to increase A405 by: 0.05 (Table 11, GalA 5 mg/ml): 11.2 min
- Time (min) to increase A405 by: 0.1 (Table 11, GalA 5 mg/ml): 12.7 min
- Time (min) to increase A405 by: 0.2 (Table 11, GalA 5 mg/ml): 14.3 min
- Time (min) to increase A405 by: 0.4 (Table 11, GalA 5 mg/ml): 15.8 min
- Time (min) to increase A405 by: 0.8 (Table 11, GalA 5 mg/ml): 17.5 min
- Time (min) to increase A405 by: 1.6 (Table 11, GalA 5 mg/ml): 19.3 min
- Time (min) to increase A405 by: 3.2 (Table 11, GalA 5 mg/ml): 22.5 min
- Time (min) to increase A405 by: 0.025 (Table 11, GalA 50 mg/ml): 13.7 min
- Time (min) to increase A405 by: 0.05 (Table 11, GalA 50 mg/ml): 16.7 min
- Time (min) to increase A405 by: 0.1 (Table 11, GalA 50 mg/ml): 20.0 min
- Time (min) to increase A405 by: 0.2 (Table 11, GalA 50 mg/ml): 23.3 min
- Time (min) to increase A405 by: 0.4 (Table 11, GalA 50 mg/ml): 26.8 min
- Time (min) to increase A405 by: 0.8 (Table 11, GalA 50 mg/ml): n.r.
- Time (min) to increase A405 by: 1.6 (Table 11, GalA 50 mg/ml): n.r.
- Time (min) to increase A405 by: 3.2 (Table 11, GalA 50 mg/ml): n.r.
- Time (min) to increase A405 by: 0.025 (Table 11, Glu 5 mg/ml): 12.8 min
- Time (min) to increase A405 by: 0.05 (Table 11, Glu 5 mg/ml): 14.8 min
- Time (min) to increase A405 by: 0.1 (Table 11, Glu 5 mg/ml): 17.0 min
- Time (min) to increase A405 by: 0.2 (Table 11, Glu 5 mg/ml): 19.3 min
- Time (min) to increase A405 by: 0.4 (Table 11, Glu 5 mg/ml): 21.8 min
- Time (min) to increase A405 by: 0.8 (Table 11, Glu 5 mg/ml): 24.3 min
- Time (min) to increase A405 by: 1.6 (Table 11, Glu 5 mg/ml): 27.0 min
- Time (min) to increase A405 by: 3.2 (Table 11, Glu 5 mg/ml): n.r.
- Time (min) to increase A405 by: 0.025 (Table 11, Mal 5 mg/ml): 11.5 min
- Time (min) to increase A405 by: 0.05 (Table 11, Mal 5 mg/ml): 13.0 min
- Time (min) to increase A405 by: 0.1 (Table 11, Mal 5 mg/ml): 14.3 min
- Time (min) to increase A405 by: 0.2 (Table 11, Mal 5 mg/ml): 15.7 min
- Time (min) to increase A405 by: 0.4 (Table 11, Mal 5 mg/ml): 17.2 min
- Time (min) to increase A405 by: 0.8 (Table 11, Mal 5 mg/ml): 18.7 min
- Time (min) to increase A405 by: 1.6 (Table 11, Mal 5 mg/ml): 20.2 min
- Time (min) to increase A405 by: 3.2 (Table 11, Mal 5 mg/ml): 22.0 min
- Time (min) to increase A405 by: 0.025 (Table 11, Mal3 5 mg/ml): 11.0 min
- Time (min) to increase A405 by: 0.05 (Table 11, Mal3 5 mg/ml): 12.3 min
- Time (min) to increase A405 by: 0.1 (Table 11, Mal3 5 mg/ml): 13.8 min
- Time (min) to increase A405 by: 0.2 (Table 11, Mal3 5 mg/ml): 15.2 min
- Time (min) to increase A405 by: 0.4 (Table 11, Mal3 5 mg/ml): 16.5 min
- Time (min) to increase A405 by: 0.8 (Table 11, Mal3 5 mg/ml): 18.0 min
- Time (min) to increase A405 by: 1.6 (Table 11, Mal3 5 mg/ml): 19.3 min
- Time (min) to increase A405 by: 3.2 (Table 11, Mal3 5 mg/ml): 21.3 min
- Time (min) to increase A405 by: 0.025 [1]: 8.5 min
- Time (min) to increase A405 by: 0.05 [1]: 9.5 min
- Time (min) to increase A405 by: 0.1 [1]: 10.8 min
- Time (min) to increase A405 by: 0.2 [1]: 12.0 min
- Time (min) to increase A405 by: 0.4 [1]: 13.3 min
- Time (min) to increase A405 by: 0.8 [1]: 14.5 min
- Time (min) to increase A405 by: 1.6 [1]: 15.8 min
- Time (min) to increase A405 by: 3.2 [1]: 17.3 min
- Time (min) to increase A405 by: 0.025 [2]: 11.0 min
- Time (min) to increase A405 by: 0.05 [2]: 12.5 min
- Time (min) to increase A405 by: 0.1 [2]: 13.8 min
- Time (min) to increase A405 by: 0.2 [2]: 15.2 min
- Time (min) to increase A405 by: 0.4 [2]: 16.5 min
- Time (min) to increase A405 by: 0.8 [2]: 18.0 min
- Time (min) to increase A405 by: 1.6 [2]: 19.5 min
- Time (min) to increase A405 by: 3.2 [2]: 21.3 min
- Time (min) to increase A405 by: 0.025 [3]: 8.7 min
- Time (min) to increase A405 by: 0.05 [3]: 9.8 min
- Time (min) to increase A405 by: 0.1 [3]: 11.0 min
- Time (min) to increase A405 by: 0.2 [3]: 12.2 min
- Time (min) to increase A405 by: 0.4 [3]: 13.3 min
- Time (min) to increase A405 by: 0.8 [3]: 14.7 min
- Time (min) to increase A405 by: 1.6 [3]: 16.0 min
- Time (min) to increase A405 by: 3.2 [3]: 17.3 min
